Assays:
Assay in all cases: IEDB peptide-MHC binding, purified MHC/competitive/radioactivity; filed as Kd, often an IC50 or EC50 that approximates it; ≥ and ≤ were set here for values at or beyond the usual limits of such assays
HLA-A*31:01 = target: HLA-A*31:01
HLA-A*68:01 = target: HLA-A*68:01
HLA-A*11:01 = target: HLA-A*11:01
HLA-A*33:01 = target: HLA-A*33:01
HLA-A*03:01 = target: HLA-A*03:01
[1] = source organism: Vaccinia virus WR
[2] = source organism: Mammarenavirus brazilense
[3] = source organism: Dengue virus 2 Jamaica/1409/1983
[4] = source organism: Vaccinia virus Copenhagen
[5] = source organism: Dengue virus 3 Martinique/1243/1999
[6] = source organism: SARS coronavirus Tor2
[7] = source organism: Dengue virus 1 Brazil/97-11/1997
[8] = source organism: Dengue virus 4 Philippines/H241/1956
[9] = source organism: Dengue virus 2 Peru/IQT2913/1996

Sequence	Kd (HLA-A*31:01; [1]) [nM]	Kd (HLA-A*68:01; [1]) [nM]	Kd (HLA-A*11:01; [1]) [nM]	Kd (HLA-A*33:01; [1]) [nM]	Kd (HLA-A*03:01; [1]) [nM]	also measured
YITDDSDDY	≥ 77900	≥ 77700	≥ 77900	≥ 77700	≥ 78000	–
TALAKCNLDH	–	–	–	–	–	Kd (HLA-A*31:01; [2]): 878 nM; Kd (HLA-A*68:01; [2]): ≥ 35100 nM; Kd (HLA-A*11:01; [2]): ≥ 69700 nM; Kd (HLA-A*33:01; [2]): ≥ 46900 nM; Kd (HLA-A*03:01; [2]): ≥ 70000 nM
VVGAGGVGK	–	–	–	–	–	Kd (HLA-A*11:01; source organism: Homo sapiens): 90.6 nM; Kd (HLA-A*03:01; source organism: Homo sapiens): 125 nM
TVKMGAFMY	3040	48.9	25.3	8710	523	–
MSRVRISLIY	3120	262	548	10600	270	–
GSCVTTMAK	–	–	–	–	–	Kd (HLA-A*11:01; [3]): 115 nM
IIDAKNDDWK	≥ 70000	2270	15900	≥ 70000	6380	–
SVSAKQLRTR	700	148	90.8	5590	168	–
YTFAISYCR	–	–	–	–	–	Kd (HLA-A*31:01; [4]): 0.933 nM; Kd (HLA-A*68:01; [4]): 0.418 nM; Kd (HLA-A*11:01; [4]): 3.35 nM; Kd (HLA-A*33:01; [4]): 1.73 nM; Kd (HLA-A*03:01; [4]): 2760 nM
VLEIINDKGK	≥ 70000	≥ 70200	2520	≥ 70000	10100	–
AQRRGRVGR	–	–	–	–	–	Kd (HLA-A*31:01; [5]): 13.2 nM
TTYDFLARK	81.1	105	0.395	8530	47.4	–
TSTGNYNYK	–	–	–	–	–	Kd (HLA-A*31:01; [6]): 151 nM; Kd (HLA-A*68:01; [6]): 37.2 nM; Kd (HLA-A*11:01; [6]): 21.1 nM; Kd (HLA-A*33:01; [6]): 12200 nM; Kd (HLA-A*03:01; [6]): 1460 nM
KAGNILFWPY	≥ 22500	14000	363	≥ 70000	248	–
IILANERYR	106	92.8	6670	2770	9590	–
DLTQIFEVY	1370	857	463	938	11100	–
LLLRKLTSK	–	–	–	–	–	Kd (HLA-A*03:01; [3]): 28.8 nM
FMVSVSDFR	67.2	0.398	493	219	3050	–
CANGWIQYDK	73.6	19.1	599	≥ 27000	888	–
STSAADIKR	1300	5.19	13.2	≥ 22100	≥ 30400	–
SIHLTKTDK	9440	140	9.38	≥ 48300	6.74	–
LVTPSMTMR	–	–	–	–	–	Kd (HLA-A*31:01; [5]): 343 nM
PLTSLVITY	1880	5600	≥ 22100	≥ 46800	13900	–

Sequence	Kd (HLA-A*31:01; [1]) [nM]	Kd (HLA-A*68:01; [1]) [nM]	Kd (HLA-A*11:01; [1]) [nM]	Kd (HLA-A*33:01; [1]) [nM]	Kd (HLA-A*03:01; [1]) [nM]	also measured
DTSASEIKDR	7970	17.6	1130	835	14800	–
MIRPQPMEHK	–	–	–	–	–	Kd (HLA-A*03:01; [7]): 8.89 nM
TQWSLFFFVY	–	–	–	–	–	Kd (HLA-A*31:01; [6]): 1580 nM; Kd (HLA-A*68:01; [6]): 6710 nM; Kd (HLA-A*11:01; [6]): 358 nM; Kd (HLA-A*33:01; [6]): 1370 nM; Kd (HLA-A*03:01; [6]): 2510 nM
ALDGTFQRK	≥ 37900	≥ 47200	30.4	≥ 77700	12.5	–
SMQNCLLRLK	–	–	–	–	–	Kd (HLA-A*31:01; [6]): 18.1 nM; Kd (HLA-A*68:01; [6]): 1280 nM; Kd (HLA-A*11:01; [6]): 17.8 nM; Kd (HLA-A*33:01; [6]): 725 nM; Kd (HLA-A*03:01; [6]): 9.94 nM
TIFAGHLKCR	–	–	–	–	–	Kd (HLA-A*68:01; [7]): 16.9 nM
TAKEVALLR	–	–	–	–	–	Kd (HLA-A*68:01; [8]): 75.1 nM; Kd (HLA-A*33:01; [8]): 17.3 nM
ITWIGMNSR	–	–	–	–	–	Kd (HLA-A*31:01; [3]): 11.2 nM; Kd (HLA-A*33:01; [3]): 35.4 nM
ILARRPTPKK	–	–	–	–	–	Kd (HLA-A*31:01; [4]): 18100 nM; Kd (HLA-A*68:01; [4]): 2390 nM; Kd (HLA-A*11:01; [4]): 4 nM; Kd (HLA-A*33:01; [4]): ≥ 70000 nM; Kd (HLA-A*03:01; [4]): 1.7 nM
GIFTTNIWLK	–	–	–	–	–	Kd (HLA-A*11:01; [7]): 12.5 nM; Kd (HLA-A*03:01; [7]): 14.3 nM
TIISEEYLSK	6710	16.6	1.74	8850	39.5	–
MSRGYFEHMK	22	8.88	7.24	2170	31.8	–
AVVYRGTTTY	–	–	–	–	–	Kd (HLA-A*31:01; [6]): 5040 nM; Kd (HLA-A*68:01; [6]): 861 nM; Kd (HLA-A*11:01; [6]): 492 nM; Kd (HLA-A*33:01; [6]): 19300 nM; Kd (HLA-A*03:01; [6]): 123 nM
HTWQKQTQR	–	–	–	–	–	Kd (HLA-A*31:01; [5]): 2.88 nM; Kd (HLA-A*33:01; [5]): 57.8 nM
MALFQPANK	–	–	–	–	–	Kd (HLA-A*11:01; source organism: Mammarenavirus juninense): 48 nM
VLLRKNGNK	–	–	–	–	–	Kd (HLA-A*31:01; [6]): 2360 nM; Kd (HLA-A*68:01; [6]): ≥ 26100 nM; Kd (HLA-A*11:01; [6]): 1660 nM; Kd (HLA-A*33:01; [6]): 9640 nM; Kd (HLA-A*03:01; [6]): 42.2 nM
LSCAVHLIIY	5370	361	≥ 61400	3830	10600	–
RMLINRFTMK	–	–	–	–	–	Kd (HLA-A*11:01; [3]): 334 nM; Kd (HLA-A*03:01; [3]): 6.19 nM
ALNDTWKIEK	–	–	–	–	–	Kd (HLA-A*11:01; [9]): 398 nM; Kd (HLA-A*03:01; [9]): 60.3 nM
TTILTPMLR	–	–	–	–	–	Kd (HLA-A*68:01; [8]): 10.9 nM; Kd (HLA-A*11:01; [8]): 387 nM; Kd (HLA-A*33:01; [8]): 36.4 nM
IALGLMALK	–	–	–	–	–	Kd (HLA-A*11:01; [5]): 42.7 nM
KSAAIDGEYR	–	–	–	–	–	Kd (HLA-A*31:01; [7]): 4.04 nM; Kd (HLA-A*68:01; [7]): 134 nM

— the Immune Epitope Database (IEDB)
